Values of other authors in patent US20180161372A1, “COMPOSITION FOR TREATING BRAIN LESIONS” (ORGANES TISSUS REGENERATION REPARATION REMPLACEMENT - OTR3, priority 2015, published 2018).

Test system: patients
Settings: strictly selected stroke patients

For “rt-PA: t-PA (tissue plasminogen activator), thrombolysis approved for ischemic stroke”, the “patients developing a cerebral hemorrhage following administration” value is given as 13%.
